# Measured values taken from paper PMC4199230.
# Target: 6X-His-PTPROt-CS/DA
# Test: pull-down
row,percent reduction of binding against WT VCP,Substance
1,50%,HA-tagged VCP Y796F (from UniProt P55072 1-806) (natural protein)
2,> 90%,HA-tagged VCP Y796F/Y805F (from UniProt P55072 1-806) (natural protein)
3,> 90%,HA-tagged VCP Y805F (from UniProt P55072 1-806) (natural protein)
